T1: Movement Protein of ToBRFV (Tomato Brown Rugose Fruit Virus …, UniProt A0A0S2SZW1 1-266)
T1 sequence: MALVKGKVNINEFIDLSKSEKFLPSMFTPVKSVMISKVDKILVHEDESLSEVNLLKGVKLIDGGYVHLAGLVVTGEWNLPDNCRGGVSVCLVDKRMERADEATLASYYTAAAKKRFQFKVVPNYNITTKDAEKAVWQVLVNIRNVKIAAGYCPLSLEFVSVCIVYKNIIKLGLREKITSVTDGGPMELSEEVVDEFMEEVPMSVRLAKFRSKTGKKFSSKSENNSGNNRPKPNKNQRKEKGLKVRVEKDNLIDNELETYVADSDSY

B1: TM-2-2 variant pJL 476_T (822 T, 848 R) (receptor)
chain: MAEILLTSVINKSVEIAGNLLIQEGKRLYWLKEDIDWLQREMRHIRSYVDNAKAKEAGGDSRVKNLLKDIQELAGDVEDLLDDFLPKIQQSNKFNYCLKRSSFADEFAMEIEKIKRRVVDIDRIRKTYNIIDTDNNNDDCVLLDRRRLFLHADETEIIGLDDDFNMLQAKLLNQDLHYGVVSIVGMPGLGKTTLAKKLYRLIRDQFECSGLVYVSQQPRASEILLDIAKQIGLTEQKMKENLEDNLRSLLKIKRYVILLDDIWDVEIWDDLKLVLPECDSKVGSRMIITSRNSNVGRYIGGESSLHALQPLESEKSFELFTKKIFNFDDNNSWANASPDLVNIGRNIVGRCGGIPLAIVVTAGMLRARERTEHAWNRVLESMGHKVQDGCAKVLALSYNDLPIASRPCFLYFGLYPEDHEIRAFDLINMWIAEKFIVVNSGNRREAEDLAEDVLNDLVSRNLIQLAKRTYNGRISSCRIHDLLHSLCVDLAKESNFFHTAHDAFGDPGNVARLRRITFYSDNVMIEFFRSNPKLEKLRVLFCFAKDPSIFSHMAYFDFKLLHTLVVVMSQSFQAYVTIPSKFGNMTCLRYLRLEGNICGKLPNSIVKLTRLETIDIDRRSLIQPPSGVWESKHLRHLCYRDYGQACNSCFSISSFYPNIYSLHPNNLQTLMWIPDKFFEPRLLHRLINLRKLGILGVSNSTVKMLSIFSPVLKALEVLKLSFSSDPSEQIKLSSYPHIAKLHLNVNRTMALNSQSFPPNLIKLTLAYFSVDRYILAVLKTFPKLRKLKMFICKYNEEKMDLSGEANGYSFPQLEVLHIHSPTGLSEVTCTDDVSMPKLKKLLLTGFHRRISLSERLKKLSK
B2: TM-2-2 variant pJL 476_R (822 R, 848 R) (receptor)
chain: MAEILLTSVINKSVEIAGNLLIQEGKRLYWLKEDIDWLQREMRHIRSYVDNAKAKEAGGDSRVKNLLKDIQELAGDVEDLLDDFLPKIQQSNKFNYCLKRSSFADEFAMEIEKIKRRVVDIDRIRKTYNIIDTDNNNDDCVLLDRRRLFLHADETEIIGLDDDFNMLQAKLLNQDLHYGVVSIVGMPGLGKTTLAKKLYRLIRDQFECSGLVYVSQQPRASEILLDIAKQIGLTEQKMKENLEDNLRSLLKIKRYVILLDDIWDVEIWDDLKLVLPECDSKVGSRMIITSRNSNVGRYIGGESSLHALQPLESEKSFELFTKKIFNFDDNNSWANASPDLVNIGRNIVGRCGGIPLAIVVTAGMLRARERTEHAWNRVLESMGHKVQDGCAKVLALSYNDLPIASRPCFLYFGLYPEDHEIRAFDLINMWIAEKFIVVNSGNRREAEDLAEDVLNDLVSRNLIQLAKRTYNGRISSCRIHDLLHSLCVDLAKESNFFHTAHDAFGDPGNVARLRRITFYSDNVMIEFFRSNPKLEKLRVLFCFAKDPSIFSHMAYFDFKLLHTLVVVMSQSFQAYVTIPSKFGNMTCLRYLRLEGNICGKLPNSIVKLTRLETIDIDRRSLIQPPSGVWESKHLRHLCYRDYGQACNSCFSISSFYPNIYSLHPNNLQTLMWIPDKFFEPRLLHRLINLRKLGILGVSNSTVKMLSIFSPVLKALEVLKLSFSSDPSEQIKLSSYPHIAKLHLNVNRTMALNSQSFPPNLIKLTLAYFSVDRYILAVLKTFPKLRKLKMFICKYNEEKMDLSGEANGYSFPQLEVLHIHSPRGLSEVTCTDDVSMPKLKKLLLTGFHRRISLSERLKKLSK
B3: TM-2-2 variant pJL 477_D (822 D, 848 R) (receptor)
chain: MAEILLTSVINKSVEIAGNLLIQEGKRLYWLKEDIDWLQREMRHIRSYVDNAKAKEAGGDSRVKNLLKDIQELAGDVEDLLDDFLPKIQQSNKFNYCLKRSSFADEFAMEIEKIKRRVVDIDRIRKTYNIIDTDNNNDDCVLLDRRRLFLHADETEIIGLDDDFNMLQAKLLNQDLHYGVVSIVGMPGLGKTTLAKKLYRLIRDQFECSGLVYVSQQPRASEILLDIAKQIGLTEQKMKENLEDNLRSLLKIKRYVILLDDIWDVEIWDDLKLVLPECDSKVGSRMIITSRNSNVGRYIGGESSLHALQPLESEKSFELFTKKIFNFDDNNSWANASPDLVNIGRNIVGRCGGIPLAIVVTAGMLRARERTEHAWNRVLESMGHKVQDGCAKVLALSYNDLPIASRPCFLYFGLYPEDHEIRAFDLINMWIAEKFIVVNSGNRREAEDLAEDVLNDLVSRNLIQLAKRTYNGRISSCRIHDLLHSLCVDLAKESNFFHTAHDAFGDPGNVARLRRITFYSDNVMIEFFRSNPKLEKLRVLFCFAKDPSIFSHMAYFDFKLLHTLVVVMSQSFQAYVTIPSKFGNMTCLRYLRLEGNICGKLPNSIVKLTRLETIDIDRRSLIQPPSGVWESKHLRHLCYRDYGQACNSCFSISSFYPNIYSLHPNNLQTLMWIPDKFFEPRLLHRLINLRKLGILGVSNSTVKMLSIFSPVLKALEVLKLSFSSDPSEQIKLSSYPHIAKLHLNVNRTMALNSQSFPPNLIKLTLAYFSVDRYILAVLKTFPKLRKLKMFICKYNEEKMDLSGEANGYSFPQLEVLHIHSPDGLSEVTCTDDVSMPKLKKLLLTGFHRRISLSERLKKLSK
B4: TM-2-2 variant pJL 477_H (822 H, 848 R) (receptor)
chain: MAEILLTSVINKSVEIAGNLLIQEGKRLYWLKEDIDWLQREMRHIRSYVDNAKAKEAGGDSRVKNLLKDIQELAGDVEDLLDDFLPKIQQSNKFNYCLKRSSFADEFAMEIEKIKRRVVDIDRIRKTYNIIDTDNNNDDCVLLDRRRLFLHADETEIIGLDDDFNMLQAKLLNQDLHYGVVSIVGMPGLGKTTLAKKLYRLIRDQFECSGLVYVSQQPRASEILLDIAKQIGLTEQKMKENLEDNLRSLLKIKRYVILLDDIWDVEIWDDLKLVLPECDSKVGSRMIITSRNSNVGRYIGGESSLHALQPLESEKSFELFTKKIFNFDDNNSWANASPDLVNIGRNIVGRCGGIPLAIVVTAGMLRARERTEHAWNRVLESMGHKVQDGCAKVLALSYNDLPIASRPCFLYFGLYPEDHEIRAFDLINMWIAEKFIVVNSGNRREAEDLAEDVLNDLVSRNLIQLAKRTYNGRISSCRIHDLLHSLCVDLAKESNFFHTAHDAFGDPGNVARLRRITFYSDNVMIEFFRSNPKLEKLRVLFCFAKDPSIFSHMAYFDFKLLHTLVVVMSQSFQAYVTIPSKFGNMTCLRYLRLEGNICGKLPNSIVKLTRLETIDIDRRSLIQPPSGVWESKHLRHLCYRDYGQACNSCFSISSFYPNIYSLHPNNLQTLMWIPDKFFEPRLLHRLINLRKLGILGVSNSTVKMLSIFSPVLKALEVLKLSFSSDPSEQIKLSSYPHIAKLHLNVNRTMALNSQSFPPNLIKLTLAYFSVDRYILAVLKTFPKLRKLKMFICKYNEEKMDLSGEANGYSFPQLEVLHIHSPHGLSEVTCTDDVSMPKLKKLLLTGFHRRISLSERLKKLSK
B5: TM-2-2 variant pJL 476_K (822 K, 848 R) (receptor)
chain: MAEILLTSVINKSVEIAGNLLIQEGKRLYWLKEDIDWLQREMRHIRSYVDNAKAKEAGGDSRVKNLLKDIQELAGDVEDLLDDFLPKIQQSNKFNYCLKRSSFADEFAMEIEKIKRRVVDIDRIRKTYNIIDTDNNNDDCVLLDRRRLFLHADETEIIGLDDDFNMLQAKLLNQDLHYGVVSIVGMPGLGKTTLAKKLYRLIRDQFECSGLVYVSQQPRASEILLDIAKQIGLTEQKMKENLEDNLRSLLKIKRYVILLDDIWDVEIWDDLKLVLPECDSKVGSRMIITSRNSNVGRYIGGESSLHALQPLESEKSFELFTKKIFNFDDNNSWANASPDLVNIGRNIVGRCGGIPLAIVVTAGMLRARERTEHAWNRVLESMGHKVQDGCAKVLALSYNDLPIASRPCFLYFGLYPEDHEIRAFDLINMWIAEKFIVVNSGNRREAEDLAEDVLNDLVSRNLIQLAKRTYNGRISSCRIHDLLHSLCVDLAKESNFFHTAHDAFGDPGNVARLRRITFYSDNVMIEFFRSNPKLEKLRVLFCFAKDPSIFSHMAYFDFKLLHTLVVVMSQSFQAYVTIPSKFGNMTCLRYLRLEGNICGKLPNSIVKLTRLETIDIDRRSLIQPPSGVWESKHLRHLCYRDYGQACNSCFSISSFYPNIYSLHPNNLQTLMWIPDKFFEPRLLHRLINLRKLGILGVSNSTVKMLSIFSPVLKALEVLKLSFSSDPSEQIKLSSYPHIAKLHLNVNRTMALNSQSFPPNLIKLTLAYFSVDRYILAVLKTFPKLRKLKMFICKYNEEKMDLSGEANGYSFPQLEVLHIHSPKGLSEVTCTDDVSMPKLKKLLLTGFHRRISLSERLKKLSK

What follows are binders tested against T1, Movement Protein of ToBRFV (assay: cell-based or functional assay).

| Binder | HR to MP Rugose [HR scale 0-4] |
| --- | --- |
| B1 | < 1 |
| B2 | 0 |
| B3 | < 1 |
| B4 | < 1 |
| B5 | 0 |

Source: patent publication US20240049668A1 (VILMORIN AND CIE, published 2024)
